In publication PMC6181439:
pKd: −log10 of the molar value.

Molecular target: Recombinant mouse PrP lacking FT (90-230) (mouse) (UniProt P04925)
Assay: SPR
Conditions: bispecific antibody

## scPOM-bi, POM1-POM2 bispecific single chain antibody
  pKd: 8.44
  koff: 0.00031 s⁻¹
